T1: recombinant DLL3 protein (purchased from ACRO, DL3-H5255) (human, UniProt Q9NYJ7 27-479)
T1 construct: Bought; also called human DLL3 protein; hDLL3
T1 sequence (looked up): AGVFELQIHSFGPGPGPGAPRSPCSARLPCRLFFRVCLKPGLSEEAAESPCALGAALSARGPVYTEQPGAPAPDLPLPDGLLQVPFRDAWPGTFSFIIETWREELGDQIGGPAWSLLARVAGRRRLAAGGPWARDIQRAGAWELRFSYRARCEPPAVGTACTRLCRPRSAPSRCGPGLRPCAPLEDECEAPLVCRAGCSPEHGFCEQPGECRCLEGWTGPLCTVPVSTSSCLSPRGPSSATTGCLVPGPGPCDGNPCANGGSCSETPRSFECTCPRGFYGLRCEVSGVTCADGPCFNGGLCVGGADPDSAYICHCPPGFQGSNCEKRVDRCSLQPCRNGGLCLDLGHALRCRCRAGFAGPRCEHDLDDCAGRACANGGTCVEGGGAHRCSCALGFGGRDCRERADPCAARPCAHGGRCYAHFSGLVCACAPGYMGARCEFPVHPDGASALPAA

T2: human DLL3 (hDLL3) on cells (human, UniProt Q9NYJ7 27-618)
T2 construct: whole, on cells; V5-tagged); also called DLL3 on SHP-77 cells (endogenous); hDLL3 on HEK293 cells
T2 sequence (looked up): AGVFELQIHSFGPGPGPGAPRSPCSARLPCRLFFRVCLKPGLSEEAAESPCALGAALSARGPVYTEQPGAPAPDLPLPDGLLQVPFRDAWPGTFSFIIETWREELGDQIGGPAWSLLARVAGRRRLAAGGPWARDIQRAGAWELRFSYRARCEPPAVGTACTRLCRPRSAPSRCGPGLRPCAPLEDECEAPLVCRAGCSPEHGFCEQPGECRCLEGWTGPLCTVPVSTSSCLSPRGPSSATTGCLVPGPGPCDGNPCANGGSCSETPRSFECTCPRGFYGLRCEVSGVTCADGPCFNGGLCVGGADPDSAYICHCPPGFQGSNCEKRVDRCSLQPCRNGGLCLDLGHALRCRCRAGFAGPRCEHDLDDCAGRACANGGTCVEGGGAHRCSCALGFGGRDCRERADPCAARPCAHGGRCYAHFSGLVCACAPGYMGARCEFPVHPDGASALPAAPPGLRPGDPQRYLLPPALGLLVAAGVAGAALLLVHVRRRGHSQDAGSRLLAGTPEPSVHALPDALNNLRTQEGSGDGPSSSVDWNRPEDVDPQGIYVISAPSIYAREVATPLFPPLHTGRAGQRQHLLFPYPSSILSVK

B1: FDA027 (antibody, human IgG1, kappa, V domains shown)
VH: QVQLVQSGAEVKKPGASVKVSCKASGYTFTNYGMNWVRQAPGQGLEWMGWINTYTGEPTYADDFKGRVTMTTDTSTSTAYMELRSLRSDDTAVYYCARIGDSSPSDYWGQGTLVTVSS
VL: EIVMTQSPATLSVSPGERATLSCKASQSVSNDVVWYQQKPGQAPRLLIYYASNRYTGIPARFSGSGSGTEFTLTISSLQSEDFAVYYCQQDYTSPWTFGQGTKLEIKR
notes: also called anti-DLL3 antibody FDA027
B2: 1A5 (antibody, V domains shown)
VH: EVQLQQSGPELVKPGASVKISCKTSGYTFTESAMHWVKQSHGKSLEWIGGINPNNGGISYSQKFKGKATLTVDKSSSTAYMELRSLTSEDSAVYYCGSSYYRDYFDYWGQGTTLTVSS
VL: NIVMTQSPESMSMSVGERVTLSCKASENVGTYVSWYQQKPDQSPKLLIYGASNRYTGVPDRFTGSGSATHFTLTISSVQAEDLADYHCGQSYSYPLTFGAGTKLELK
notes: also called hybridoma antibody clone 1A5
B3: 10B1 (antibody, V domains shown)
VH: DVKLVESGGGLVKPGGSLKLSCAASGFTFSNYTISWVRQTPEKRLEWVATFSSGGSYTYYSDSVKGRFTISRDNAKNTLYLQMSSLKSEDTAMYYCSRDRRSDGYYHLYAMDYWGQGTSVTVSS
VL: DIQMTQTTSSLSASLGDRVTISCRASQDISHYLNWYQQKPDGTVKLLIYYTSRLHSGVPSRFSGSGSGTAYSLTISNLEQEDIATYFCQQGYTLPLTFGAGTKLELK
notes: Murine hybridoma monoclonal antibody; also called hybridoma antibody clone 10B1
B4: 19C7 (antibody, V domains shown)
VH: EVQLQQSGPELVRPGASVRMSCKASGYTFTYYVMHWVKQKPGLGLEWIGYINPYNDGTEYNEKFKGKATLTSDKSSSTAFMELSSLTSEDSAVYYCARWLLREYAMDYWGQGTSVTVSS
VL: DIQMTQSPASLSASVGETVTITCRASDNIHNYLAWYQQKQGKSPQLLVYNAKTLADGVPSRFSGSGSGTQYSLKINSLQPEDFGSYYCQHFWSTPWTFGGGTKLEIK
notes: Murine hybridoma monoclonal antibody; also called hybridoma antibody clone 19C7
B5: 6A2 (antibody, V domains shown)
VH: EVQLQQSGPELVKPGASVKISCKASGYTFTDYNMNWVKQSQGKSLEWIGYIYPYNGGTGYNQKFKTKATLTVDNSSSTAYMEFRSLTSEDSAVYYCARSDPYYTMDYWGQGTSVTVSS
VL: IIVMTQTPKFLLVSAGDRVTISCKASQSVNNDVAWYQQKPGQSPKLLIYFTSNRFTGVPDRFTGSGYGTDFTFTISSVQAEDLAVYFCQQDHNSPYTFGGGTKLEIK
notes: Murine hybridoma monoclonal antibody; also called hybridoma antibody clone 6A2
B6: 4H7 (antibody, V domains shown)
VH: EVQLQQSGAELVRPGALVKLSCKASGFNFKDYYIHWVKQRPELGLEWIGWIDPENGNAIYDPKFQDKASITADTSSNTAYLHLSSLTSEGTAVYYCASEDAYYPFAYWGQGTLVTVSS
VL: DIVMSQSPSSLAVSVGEKVTMRCKSSQSLLYSSNQKNYLAWYQQKPGQSPKLLIYWASTRESGVPDRFTGSGSGTDFTLTISSVKAEDLAVYFCQQYYSYRTFGGGTKLEIK
notes: Murine hybridoma monoclonal antibody; also called hybridoma antibody clone 4H7
B7: 15G2 (antibody, V domains shown)
VH: EVQLQQSGPELEKPGASVRISCKASGYSFTDYNMHWVKQSNGKSLEWIGNIDPYYGGTNYNQKFEGKATLTVDKSSSTAYMQLKSLTSEDSAVYYCARGGNNYGDYWGQGTTLTVSS
VL: DIQMTQSPASLAASVGETVTITCRASENIYYSLAWYQQKQGKSPQLLIFNANSLEDGVPSRFSGSGSGTQYSMKINSMQPEDTATYFCKQAYDVPWTFGGGTKLEIK
notes: Murine hybridoma monoclonal antibody; also called hybridoma antibody clone 15G2
B8: 13C2 (antibody, V domains shown)
VH: EVKLVESGGGLVKPGGSLKLSCAASGFAFSSYDMSWVRQTPEKRLEWVATISSGGSYTYYPDSVKGRFTISRDNGRNTLYLQMSSLRSEDTALYYCASPLLGLRFAYWGQGTLVTVSA
VL: QAVVTQESALTTSPGETVTLTCRSSTGAVTTINYANWVQEKPDHLFTGLIGGTNNRAPGVPARFSGSLIGDKAALTITGAQTEDEAIYFCALYYSNHWVFGGGTKLTVL
notes: Murine hybridoma monoclonal antibody; also called hybridoma antibody clone 13C2

The target in one experiment is T1, recombinant DLL3 protein (purchased …). Put plainly: ELISA, plate-coated human DLL3 protein 1 µg/ml. The source says:
Six 6-week-old SPF grade female Balb/C mice (purchased from Shanghai Jihui Laboratory Animal Care Co., Ltd.) were selected and randomly divided into two groups, A and B. They were immunized with recombinant DLL3 protein (purchased from ACRO, DL3-H5255) at two-week intervals. Freund's complete adjuvant was used for the first immunization and Freund's incomplete adjuvant was used for subsequent immunizations. On days 35 and 49, blood samples were collected from the mice via orbital bleeding, and the immune serum titers of the mice were detected using conventional methods of ELISA and Flow Cytometry (FACS). ELISA detection method: DLL3 protein was diluted with PBS to a concentration of 1 μg/ml. 100 μl/well was added to a 96-well ELISA plate and incubated overnight at 4° C. The next day, the supernatant was discarded, and each well was blocked with 200 μl of 2% milk in PBS for 2 hours. After discarding the blocking solution, the wells were washed 3 times with 200 μl of PBST (0.1% Tween20). The serum to be detected was pre-diluted 100 times as the starting concentration, followed by a 3-fold gradient dilution across 11 concentrations, with 100 μl added to each well of the ELISA plate. After incubating at room temperature for 1 hour, the supernatant was discarded and the wells were washed 5 times with 200 μl of PBST (0.1% Tween20). Then, 100 μl of HRP-labeled goat anti-mouse secondary antibody (Jackson, 1:10000) was added and incubated at room temperature for 1 hour. After discarding the supernatant, the wells were washed 7 times with 200 μl of PBST (0.1% Tween20). 100 μl of TMB chromogen solution was added to each well for 10 minutes. The reaction was terminated with 2M HCl, and absorbance value at 450 nm was read with a Microplate Reader (purchased from Biotek, Elx808).
For the hybridoma clones with good binding and internalization activities identified in Example 5, the heavy chain variable region sequences were synthesized and cloned into the pFUSEss-CHIg-hG1 vector (purchased from InvivoGen, catalog number pfusess-hchgl) comprising the amino acid sequence of the human antibody IgG1 heavy chain constant region by homologous recombination.
As to B1, the EC50 stood at 0.0108 µg/mL.

For a further experiment, the target named is T2, human DLL3 (hDLL3) on cells. Put plainly: flow cytometry on SHP-77 cells, 1 µg/ml antibody, kept on ice (0 H of the internalization assay). As to the method:
The SHP-77 cells were used to detect the internalization activity of the hybridoma antibodies obtained in Example 3-3 by using the FACS method described in Example 3-1. The detecting method is briefly described as follows: Six aliquots of 5×10⁵ SHP-77 cells each were prepared in a 96-well V-bottom plate and centrifuged at 1500 r/min for 1 minute, after which the supernatant was discarded. 1 μg/ml of the saturated antibody to be detected was added to each well (200 μL per well) and incubated on ice for 30 minutes. Then, 150 μL of PBS was added to each well, followed by centrifugation at 1500 r/min for 1 minute, and the supernatant was discarded. This step was repeated four times. The cells were resuspended in 200 μl of PBS, and one aliquot was incubated at 37° C. for various durations: 5 hours, 3 hours, 1 hour, 0.5 hours, and 15 minutes. The remaining aliquot was kept on ice. After incubation, all samples were centrifuged at 4° C., 1500 r/min for 1 minute, and the supernatant was discarded. APC-labeled goat anti-mouse IgG (Jackson, catalog number 109-605-098, diluted 1:800 in PBS) was added to each well (50 μL per well) and incubated on ice for 30 minutes. The cells were then washed four times by resuspending in 150 μL of PBS, followed by centrifugation at 1500 r/min for 1 minute and discarding the supernatant. Finally, the cells were resuspended in 100 μL of PBS and analyzed using a CytoFLEX flow cytometer (purchased from Beckman).
B2: the “fluorescence value at 0 H” value stood at 39300.

As for B3, the “fluorescence value at 0 H” value came to 22400.

As for B4, the “fluorescence value at 0 H” value amounted to 29600.

B5: the “fluorescence value at 0 H” value came to 20300.

Take B6: the “fluorescence value at 0 H” value is 15400.

B7: the “fluorescence value at 0 H” value is 20300.

In the case of B8, the “fluorescence value at 0 H” value turned out to be 40200.

For orientation: EC50 means the concentration that produces a half-maximal response.

For the origin of these results see patent US20250114467A1 (SHANGHAI FUDAN ZHANGJIANG BIO PHARMACEUTICAL, published 2025).
